Data: IntAct's records for PubMed 20865002

B1: Serine/threonine-protein kinase RAD53 (Saccharomyces cerevisiae), P22216 (parent)
chain: MENITQPTQQSTQATQRFLIEKFSQEQIGENIVCRVICTTGQIPIRDLSADISQVLKEKRSIKKVWTFGRNPACDYHLGNISRLSNKHFQILLGEDGNLLLNDISTNGTWLNGQKVEKNSNQLLSQGDEITVGVGVESDILSLVIFINDKFKQCLEQNKVDRIRSNLKNTSKIASPGLTSSTASSMVANKTGIFKDFSIIDEVVGQGAFATVKKAIERTTGKTFAVKIISKRKVIGNMDGVTRELEVLQKLNHPRIVRLKGFYEDTESYYMVMEFVSGGDLMDFVAAHGAVGEDAGREISRQILTAIKYIHSMGISHRDLKPDNILIEQDDPVLVKITDFGLAKVQGNGSFMKTFCGTLAYVAPEVIRGKDTSVSPDEYEERNEYSSLVDMWSMGCLVYVILTGHLPFSGSTQDQLYKQIGRGSYHEGPLKDFRISEEARDFIDSLLQVDPNNRSTAAKALNHPWIKMSPLGSQSYGDFSQISLSQSLSQQKLLENMDDAQYEFVKAQRKLQMEQQLQEQDQEDQDGKIQGFKIPAHAPIRYTQPKSIEAETREQKLLHSNNTENVKSSKKKGNGRFLTLKPLPDSIIQESLEIQQGVNPFFIGRSEDCNCKIEDNRLSRVHCFIFKKRHAVGKSMYESPAQGLDDIWYCHTGTNVSYLNNNRMIQGTKFLLQDGDEIKIIWDKNNKFVIGFKVEINDTTGLFNEGLGMLQEQRVVLKQTAEEKDLVKKLTQMMAAQRANQPSASSSSMSAKKPPVSDTNNNGNNSVLNDLVESPINANTGNILKRIHSVSLSQSQIDPSKKVKRAKLDQTSKGPENLQFS
partner: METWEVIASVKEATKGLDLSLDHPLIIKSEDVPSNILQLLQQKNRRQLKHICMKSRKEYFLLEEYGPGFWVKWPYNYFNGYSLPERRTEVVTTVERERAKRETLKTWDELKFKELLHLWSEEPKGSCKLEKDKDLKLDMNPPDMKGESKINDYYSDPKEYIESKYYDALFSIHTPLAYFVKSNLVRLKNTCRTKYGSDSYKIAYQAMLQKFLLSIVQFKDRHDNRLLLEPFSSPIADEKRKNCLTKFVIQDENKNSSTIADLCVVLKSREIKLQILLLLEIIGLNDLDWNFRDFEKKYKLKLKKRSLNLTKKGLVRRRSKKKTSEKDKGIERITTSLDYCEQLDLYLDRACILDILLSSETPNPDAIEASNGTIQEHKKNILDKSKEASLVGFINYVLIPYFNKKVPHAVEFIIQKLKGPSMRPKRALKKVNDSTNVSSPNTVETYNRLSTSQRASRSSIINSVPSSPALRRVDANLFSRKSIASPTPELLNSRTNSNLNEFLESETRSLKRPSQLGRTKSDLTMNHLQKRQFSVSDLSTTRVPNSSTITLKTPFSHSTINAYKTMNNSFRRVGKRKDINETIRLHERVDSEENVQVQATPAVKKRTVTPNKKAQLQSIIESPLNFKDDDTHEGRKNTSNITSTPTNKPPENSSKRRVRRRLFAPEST

Variants of: B1
Details: with sld3_yeast SLD3, P53135
For K227A, the “effect of a mutation on the interaction” value was “disrupting interaction”.
